doi:10.1101/2024.01.20.576400 (bioRxiv, 2024)
pKd: −log10 of the molar value.

What was measured:
[1] = biological target: Pwl2-3 (Magnaporthe oryzae); test: ITC
[2] = biological target: Pwl2-2 (Magnaporthe oryzae); test: ITC

## HMA domain of OsHIPP43 (residues 26-101) (from UniProt Q8LJL3 26-101) (domain or fragment)
[1]
  pKd: 7.46
[2]
  pKd: 6.85
